Read-outs that look alike come from different tables or passages of the source.
Experiments:
[1] = target: T1, MBD of human MeCP2 (human, UniProt P51608 77-166); experiment: EMSA
[2] = target: T2, Tbis1 (Thermobispora bispora DSM 43833, UniProt D6YAC6 2-309); experiment: EMSA
T2 sequence: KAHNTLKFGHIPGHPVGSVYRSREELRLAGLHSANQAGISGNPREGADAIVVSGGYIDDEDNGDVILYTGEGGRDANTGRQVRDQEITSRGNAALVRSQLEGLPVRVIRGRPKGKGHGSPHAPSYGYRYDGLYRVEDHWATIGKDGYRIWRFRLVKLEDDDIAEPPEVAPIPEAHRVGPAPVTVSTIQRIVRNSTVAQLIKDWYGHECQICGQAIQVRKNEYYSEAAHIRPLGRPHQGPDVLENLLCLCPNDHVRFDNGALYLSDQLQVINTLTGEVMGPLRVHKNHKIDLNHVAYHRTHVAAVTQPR

[3] = target: T1, MBD of human MeCP2; experiment: EMSA; remark: listed apart in the source
[4] = target: T3, Sco5333 H253A (Streptomyces coelicolor, UniProt Q9ADD4 1-301, H253A); experiment: EMSA
T3 sequence: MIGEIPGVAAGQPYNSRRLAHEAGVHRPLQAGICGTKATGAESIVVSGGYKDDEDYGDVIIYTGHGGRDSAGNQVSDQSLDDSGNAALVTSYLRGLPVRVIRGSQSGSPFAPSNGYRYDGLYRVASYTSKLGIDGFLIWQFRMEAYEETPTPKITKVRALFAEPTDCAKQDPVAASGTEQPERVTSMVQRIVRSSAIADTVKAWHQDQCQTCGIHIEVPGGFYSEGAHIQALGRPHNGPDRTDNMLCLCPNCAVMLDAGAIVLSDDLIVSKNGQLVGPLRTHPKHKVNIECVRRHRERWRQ

[5] = target: T4, Sco5333 G32A (Streptomyces coelicolor, UniProt Q9ADD4 1-301, G32A); experiment: EMSA
T4 sequence: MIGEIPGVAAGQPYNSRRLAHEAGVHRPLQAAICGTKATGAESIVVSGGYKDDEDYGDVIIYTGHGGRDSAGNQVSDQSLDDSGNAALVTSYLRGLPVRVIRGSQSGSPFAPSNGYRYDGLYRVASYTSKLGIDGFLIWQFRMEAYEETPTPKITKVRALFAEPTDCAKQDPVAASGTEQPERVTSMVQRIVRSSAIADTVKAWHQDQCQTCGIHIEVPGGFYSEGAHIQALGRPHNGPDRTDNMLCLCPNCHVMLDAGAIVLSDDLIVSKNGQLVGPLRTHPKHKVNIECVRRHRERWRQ

[6] = target: MBD of mouse MeCP2 (mouse, UniProt Q9Z2D6 77-165); experiment: EMSA
[7] = target: T5, Sco5333 H228A (Streptomyces coelicolor, UniProt Q9ADD4 1-301, H228A); experiment: EMSA
T5 sequence: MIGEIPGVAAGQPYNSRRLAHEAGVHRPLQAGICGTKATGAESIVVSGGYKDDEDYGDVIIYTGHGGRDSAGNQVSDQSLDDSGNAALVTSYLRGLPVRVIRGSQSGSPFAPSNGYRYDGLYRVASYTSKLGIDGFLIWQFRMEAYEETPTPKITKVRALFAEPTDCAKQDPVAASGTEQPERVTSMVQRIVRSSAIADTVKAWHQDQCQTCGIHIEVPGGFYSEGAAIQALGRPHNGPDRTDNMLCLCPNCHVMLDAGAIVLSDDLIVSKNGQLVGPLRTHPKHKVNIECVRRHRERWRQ

[8] = target: T6, Sco5333 Y50A (Streptomyces coelicolor, UniProt Q9ADD4 1-301, Y50A); experiment: EMSA
T6 sequence: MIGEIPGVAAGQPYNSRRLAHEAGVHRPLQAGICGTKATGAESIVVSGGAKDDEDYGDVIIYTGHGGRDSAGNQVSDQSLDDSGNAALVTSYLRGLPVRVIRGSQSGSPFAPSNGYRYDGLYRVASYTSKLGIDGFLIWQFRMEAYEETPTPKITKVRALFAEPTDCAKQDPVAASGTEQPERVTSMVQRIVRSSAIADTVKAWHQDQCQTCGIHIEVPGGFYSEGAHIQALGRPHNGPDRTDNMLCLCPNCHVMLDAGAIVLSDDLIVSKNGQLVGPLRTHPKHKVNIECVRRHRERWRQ

[9] = target: T7, Sco5333 (Streptomyces coelicolor, UniProt Q9ADD4 1-301); experiment: ITC
T7 sequence: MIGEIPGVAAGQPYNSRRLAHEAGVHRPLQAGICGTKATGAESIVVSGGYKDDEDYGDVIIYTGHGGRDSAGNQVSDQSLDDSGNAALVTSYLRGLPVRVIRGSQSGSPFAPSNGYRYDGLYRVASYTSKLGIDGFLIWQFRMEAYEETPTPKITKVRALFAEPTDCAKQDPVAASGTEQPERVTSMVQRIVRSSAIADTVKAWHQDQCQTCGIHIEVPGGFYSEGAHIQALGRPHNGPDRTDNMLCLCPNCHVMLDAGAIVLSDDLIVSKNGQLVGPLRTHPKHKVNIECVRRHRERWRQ

[10] = target: T7, Sco5333; experiment: ITC; remark: listed apart in the source
[11] = target: T7, Sco5333; experiment: ITC; remark: listed apart in the source

Chain of MBD of mouse MeCP2 (Q9Z2D6 77-165): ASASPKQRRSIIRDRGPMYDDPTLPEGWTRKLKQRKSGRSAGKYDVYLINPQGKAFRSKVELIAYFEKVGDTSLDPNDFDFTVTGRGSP
T1 sequence (P51608 77-166): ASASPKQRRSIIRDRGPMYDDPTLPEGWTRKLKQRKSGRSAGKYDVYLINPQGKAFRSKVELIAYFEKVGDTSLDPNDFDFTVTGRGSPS

B1: 66nt fully methylated (66nt-1/3) (dsDNA)
DNA 1: AAAAACGGCGTTTCCGGGTTCCATAGGCTCCGCACCGGTCTCTGATGACCAGGGCATCACATTTTT
DNA 2: AAAAATGTGATGCCCTGGTCATCAGAGACCGGTGCGGAGCCTATGGAACCCGGAAACGCCGTTTTT
modifications: 5mC at strand 1 pos 36 and strand 2 pos 30
binding signal [1]: 64 fold preference over non-methylated | binding signal [2]: > 100 fold preference over non-methylated

B2: 66nt non-methylated (66nt-2/4) (dsDNA)
DNA 1: AAAAACGGCGTTTCCGGGTTCCATAGGCTCCGCACCGGTCTCTGATGACCAGGGCATCACATTTTT
DNA 2: AAAAATGTGATGCCCTGGTCATCAGAGACCGGTGCGGAGCCTATGGAACCCGGAAACGCCGTTTTT
binding signal [3]: 64 protein:DNA molar ratio for shift

B3: 54nt fully methylated (54nt-1/3) (dsDNA)
DNA 1: GAAACCCGACAGGACTATAAAGATACCGGCGTTTCCCCCTGGAAGCTCCCTCGT
DNA 2: ACGAGGGAGCTTCCAGGGGGAAACGCCGGTATCTTTATAGTCCTGTCGGGTTTC
modifications: 5mC at strand 1 pos 27 and strand 2 pos 27
binding result [4]: binds | binding result [5]: no binding | binding result [6]: binds | binding result [7]: binds | binding result [8]: no binding | Kd [9]: 4.13 µM

B4: 54nt bottom methylated (54nt-2/3) (dsDNA)
DNA 1: GAAACCCGACAGGACTATAAAGATACCGGCGTTTCCCCCTGGAAGCTCCCTCGT
DNA 2: ACGAGGGAGCTTCCAGGGGGAAACGCCGGTATCTTTATAGTCCTGTCGGGTTTC
modifications: 5mC at strand 2 pos 27
binding result [6]: no binding | Kd [10]: 1.47 µM

B5: 54nt top methylated (54nt-1/4) (dsDNA)
DNA 1: GAAACCCGACAGGACTATAAAGATACCGGCGTTTCCCCCTGGAAGCTCCCTCGT
DNA 2: ACGAGGGAGCTTCCAGGGGGAAACGCCGGTATCTTTATAGTCCTGTCGGGTTTC
modifications: 5mC at strand 1 pos 27
binding result [6]: no binding | Kd [11]: 3.14 µM
